Measurements taken from PMC10110616.

Molecular target: Delta-C70-Ferritin-HexaPro (DCFHP), from Expi293F cells (SARS-CoV-2 (Wuhan-1 isolate) | H. pylori) (UniProt P0DTC2)
Test: SEC-MALS

Substance: Delta-C70-Ferritin-HexaPro (DCFHP), from Expi293F cells (from UniProt P0DTC2 14-1146; Q9ZLI1 5-167)
- stoichiometry N: 24
